One test has as its target T1, FSHR^L14A (human, UniProt P23945 18-695).
T1 chain: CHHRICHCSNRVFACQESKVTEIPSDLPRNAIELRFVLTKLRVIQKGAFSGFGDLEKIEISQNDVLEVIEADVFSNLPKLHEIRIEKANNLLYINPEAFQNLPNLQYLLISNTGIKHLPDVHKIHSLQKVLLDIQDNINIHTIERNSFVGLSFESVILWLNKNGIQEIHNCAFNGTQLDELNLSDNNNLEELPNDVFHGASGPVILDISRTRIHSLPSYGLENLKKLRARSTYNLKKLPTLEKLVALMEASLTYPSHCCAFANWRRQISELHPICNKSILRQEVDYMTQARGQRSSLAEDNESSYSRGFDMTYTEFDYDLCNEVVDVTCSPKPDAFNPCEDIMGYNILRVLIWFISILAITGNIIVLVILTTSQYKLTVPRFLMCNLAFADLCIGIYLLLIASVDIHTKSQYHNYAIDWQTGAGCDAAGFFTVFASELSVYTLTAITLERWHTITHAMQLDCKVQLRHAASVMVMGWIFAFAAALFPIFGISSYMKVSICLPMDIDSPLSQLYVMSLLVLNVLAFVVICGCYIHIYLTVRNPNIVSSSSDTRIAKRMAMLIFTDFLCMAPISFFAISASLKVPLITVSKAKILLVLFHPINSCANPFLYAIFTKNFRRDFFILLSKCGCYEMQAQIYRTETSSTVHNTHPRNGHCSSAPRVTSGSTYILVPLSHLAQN

A further test deals with T2, FSHR^V12A (human, UniProt P23945 18-695).
T2 chain: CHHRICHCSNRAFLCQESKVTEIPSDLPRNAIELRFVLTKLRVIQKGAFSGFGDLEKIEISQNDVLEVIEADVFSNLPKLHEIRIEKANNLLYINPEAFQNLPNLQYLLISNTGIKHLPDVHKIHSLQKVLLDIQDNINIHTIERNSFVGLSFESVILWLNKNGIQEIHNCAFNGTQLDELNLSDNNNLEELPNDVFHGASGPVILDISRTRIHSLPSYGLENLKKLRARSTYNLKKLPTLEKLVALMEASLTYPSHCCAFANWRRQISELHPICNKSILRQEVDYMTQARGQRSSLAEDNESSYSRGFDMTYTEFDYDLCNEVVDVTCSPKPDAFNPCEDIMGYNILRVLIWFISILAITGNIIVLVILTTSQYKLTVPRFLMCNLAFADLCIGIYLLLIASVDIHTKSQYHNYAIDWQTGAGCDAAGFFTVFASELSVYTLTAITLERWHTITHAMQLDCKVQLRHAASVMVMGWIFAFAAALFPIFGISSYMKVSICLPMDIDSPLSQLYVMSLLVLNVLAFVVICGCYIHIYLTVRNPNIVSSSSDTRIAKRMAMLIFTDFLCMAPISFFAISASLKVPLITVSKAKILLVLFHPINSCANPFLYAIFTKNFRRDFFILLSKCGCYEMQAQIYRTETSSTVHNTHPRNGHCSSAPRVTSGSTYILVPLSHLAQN

A further test addresses T3, FSHR^S9A (human, UniProt P23945 18-695).
T3 chain: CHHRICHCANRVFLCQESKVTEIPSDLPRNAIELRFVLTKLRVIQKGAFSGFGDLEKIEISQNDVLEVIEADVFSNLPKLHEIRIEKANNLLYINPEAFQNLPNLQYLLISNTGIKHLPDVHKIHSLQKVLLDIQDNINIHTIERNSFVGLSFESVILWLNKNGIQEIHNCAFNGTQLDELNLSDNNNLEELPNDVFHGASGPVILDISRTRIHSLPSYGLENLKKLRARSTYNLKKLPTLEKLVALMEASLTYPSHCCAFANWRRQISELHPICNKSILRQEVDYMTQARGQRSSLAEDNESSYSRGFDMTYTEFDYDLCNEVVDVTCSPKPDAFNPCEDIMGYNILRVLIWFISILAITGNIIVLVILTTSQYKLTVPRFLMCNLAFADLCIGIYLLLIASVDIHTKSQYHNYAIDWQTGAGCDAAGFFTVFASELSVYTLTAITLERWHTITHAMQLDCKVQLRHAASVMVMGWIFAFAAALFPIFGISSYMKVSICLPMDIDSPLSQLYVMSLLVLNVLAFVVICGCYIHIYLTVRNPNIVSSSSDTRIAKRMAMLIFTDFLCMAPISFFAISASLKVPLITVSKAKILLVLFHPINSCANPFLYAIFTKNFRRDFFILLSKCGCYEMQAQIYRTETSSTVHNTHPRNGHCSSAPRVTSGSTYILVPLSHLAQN

The next test has as its target T4, FSHR^S18A (human, UniProt P23945 18-695).
T4 chain: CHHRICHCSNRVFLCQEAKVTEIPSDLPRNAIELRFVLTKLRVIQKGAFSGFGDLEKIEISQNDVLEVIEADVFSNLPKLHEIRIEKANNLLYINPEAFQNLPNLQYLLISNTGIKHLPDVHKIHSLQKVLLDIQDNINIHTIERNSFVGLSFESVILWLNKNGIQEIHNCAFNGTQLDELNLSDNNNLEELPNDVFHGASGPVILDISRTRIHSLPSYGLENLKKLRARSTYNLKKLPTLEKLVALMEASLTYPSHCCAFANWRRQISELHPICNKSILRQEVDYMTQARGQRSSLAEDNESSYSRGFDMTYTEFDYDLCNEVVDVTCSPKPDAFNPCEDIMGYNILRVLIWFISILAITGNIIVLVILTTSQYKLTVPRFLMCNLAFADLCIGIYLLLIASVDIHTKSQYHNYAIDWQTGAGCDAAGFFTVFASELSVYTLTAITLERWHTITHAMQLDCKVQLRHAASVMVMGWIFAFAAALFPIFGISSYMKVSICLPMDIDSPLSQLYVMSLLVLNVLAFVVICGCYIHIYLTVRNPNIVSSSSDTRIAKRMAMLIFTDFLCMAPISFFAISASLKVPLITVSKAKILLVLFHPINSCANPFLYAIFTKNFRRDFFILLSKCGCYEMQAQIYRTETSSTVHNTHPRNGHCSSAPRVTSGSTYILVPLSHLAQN

The next test deals with T5, FSHR^F13A (human, UniProt P23945 18-695).
T5 chain: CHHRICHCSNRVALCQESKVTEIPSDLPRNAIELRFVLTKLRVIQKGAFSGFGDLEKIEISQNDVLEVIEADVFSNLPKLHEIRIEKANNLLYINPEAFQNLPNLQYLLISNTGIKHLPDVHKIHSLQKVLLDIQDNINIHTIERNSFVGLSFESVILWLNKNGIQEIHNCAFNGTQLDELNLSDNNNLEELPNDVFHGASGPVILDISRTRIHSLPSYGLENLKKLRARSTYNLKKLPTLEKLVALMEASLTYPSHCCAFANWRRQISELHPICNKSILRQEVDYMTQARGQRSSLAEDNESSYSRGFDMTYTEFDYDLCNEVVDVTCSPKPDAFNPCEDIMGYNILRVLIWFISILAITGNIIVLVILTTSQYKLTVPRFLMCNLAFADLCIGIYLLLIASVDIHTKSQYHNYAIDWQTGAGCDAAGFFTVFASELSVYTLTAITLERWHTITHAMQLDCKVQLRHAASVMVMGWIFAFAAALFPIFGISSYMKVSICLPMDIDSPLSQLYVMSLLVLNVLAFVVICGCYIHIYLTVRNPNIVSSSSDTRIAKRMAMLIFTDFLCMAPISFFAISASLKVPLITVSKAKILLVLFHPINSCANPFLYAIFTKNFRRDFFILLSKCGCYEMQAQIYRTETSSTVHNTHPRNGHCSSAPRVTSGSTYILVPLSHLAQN

The next test concerns the target T6, FSHR^N10A (human, UniProt P23945 18-695).
T6 chain: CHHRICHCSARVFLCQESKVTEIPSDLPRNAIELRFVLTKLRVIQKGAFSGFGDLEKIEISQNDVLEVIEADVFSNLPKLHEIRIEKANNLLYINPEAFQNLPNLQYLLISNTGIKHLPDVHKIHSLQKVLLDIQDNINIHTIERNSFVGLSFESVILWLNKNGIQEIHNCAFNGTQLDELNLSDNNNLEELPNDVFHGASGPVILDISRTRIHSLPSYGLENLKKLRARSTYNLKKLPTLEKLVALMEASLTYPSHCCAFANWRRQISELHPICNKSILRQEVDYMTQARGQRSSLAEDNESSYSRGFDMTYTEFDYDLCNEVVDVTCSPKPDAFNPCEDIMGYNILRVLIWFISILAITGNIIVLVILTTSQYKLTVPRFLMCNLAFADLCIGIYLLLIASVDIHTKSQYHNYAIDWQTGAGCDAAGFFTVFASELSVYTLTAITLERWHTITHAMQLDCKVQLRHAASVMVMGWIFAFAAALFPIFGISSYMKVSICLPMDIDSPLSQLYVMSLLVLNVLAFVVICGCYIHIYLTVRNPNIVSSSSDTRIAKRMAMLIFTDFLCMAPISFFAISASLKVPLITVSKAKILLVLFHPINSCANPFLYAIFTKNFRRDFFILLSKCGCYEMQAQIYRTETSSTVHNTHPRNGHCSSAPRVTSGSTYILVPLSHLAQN

The next test has as its target D. Description: 125I-FSH displacement, Scatchard.
Another test deals with C. Description: 125I-FSH displacement, Scatchard.
In another test the target is P. Description: 125I-FSH displacement, Scatchard.
Another test deals with P582 Y. The test can be described thus: 125I-FSH displacement / Scatchard.
A further test concerns the target P582 C. The test can be described thus: 125I-FSH displacement / Scatchard.
For another test, the target named is P582 S. Description: 125I-FSH displacement / Scatchard.
In another test the target is P582 R. Description: 125I-FSH displacement / Scatchard.
A further test concerns the target P582 E. Description: 125I-FSH displacement / Scatchard.
A further test concerns the target P582 L. The test can be described thus: 125I-FSH displacement / Scatchard.
A further test deals with P582 Q. Description: 125I-FSH displacement / Scatchard.
The next test concerns the target P582 F. Description: 125I-FSH displacement / Scatchard.
In a further test the target is P582 D. The test can be described thus: 125I-FSH displacement / Scatchard.
A further test deals with K590 Q. Description: 125I-FSH displacement / Scatchard.
The target of test [1] is T7, human LH receptor, wild type (human, UniProt P22888 27-699). The test can be described thus: 125I-hCG displacement / Scatchard; panels A-C.
Test [2] addresses T7, human LH receptor, wild type. The test can be described thus: 125I-hCG displacement / Scatchard; panels D-F.

T7 sequence (P22888 27-699): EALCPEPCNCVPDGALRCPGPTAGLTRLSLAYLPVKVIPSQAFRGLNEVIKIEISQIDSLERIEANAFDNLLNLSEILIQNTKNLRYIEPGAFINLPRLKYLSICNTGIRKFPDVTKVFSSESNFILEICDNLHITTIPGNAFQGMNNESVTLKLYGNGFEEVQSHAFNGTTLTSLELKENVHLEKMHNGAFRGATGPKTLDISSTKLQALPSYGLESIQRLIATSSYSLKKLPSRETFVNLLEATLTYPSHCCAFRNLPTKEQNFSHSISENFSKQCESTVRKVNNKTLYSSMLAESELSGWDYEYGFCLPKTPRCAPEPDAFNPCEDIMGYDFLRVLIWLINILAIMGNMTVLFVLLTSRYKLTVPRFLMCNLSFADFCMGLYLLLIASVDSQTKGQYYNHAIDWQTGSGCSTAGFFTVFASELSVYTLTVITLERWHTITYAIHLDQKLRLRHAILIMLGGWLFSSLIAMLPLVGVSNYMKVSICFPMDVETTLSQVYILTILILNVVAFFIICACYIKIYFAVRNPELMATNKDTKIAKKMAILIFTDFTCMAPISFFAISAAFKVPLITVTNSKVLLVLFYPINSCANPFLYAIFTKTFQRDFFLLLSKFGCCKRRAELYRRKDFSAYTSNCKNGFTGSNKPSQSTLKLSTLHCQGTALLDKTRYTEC

B1: human FSH (ligand)
chain 1: not shown
chain 2: NSCELTNITIAIEKEECRFCISINTTWCAGYCYTRDLVYKDPARPKIQKTCTFKELVYETVRVPGCAHHADSLYTYPVATQCHCGKCDSDSTDCTVRGLGPSYCSFGEMKE
With B1, the Kd was 1.37 nM with FSHR^L14A; 2.53 nM in the test with FSHR^V12A; 2.78 nM with FSHR^S9A; 3.64 nM in the test with FSHR^S18A; 2.56 nM with FSHR^F13A; 1.56 nM with FSHR^N10A.

B2: FSH (ligand)
chain 1: not shown
chain 2: NSCELTNITIAIEKEECRFCISINTTWCAGYCYTRDLVYKDPARPKIQKTCTFKELVYETVRVPGCAHHADSLYTYPVATQCHCGKCDSDSTDCTVRGLGPSYCSFGEMKE
Consider B2, for which the dissociation constant (Kd) with D was found to be 1.2 nM; in the test with C, 3.9 nM; with P it was 1.6 nM; with P582 Y, 4.3 nM; in the test with P582 C, 2.4 nM; in the test with P582 S, 4.5 nM. For the same molecule, the dissociation constant Kd with P582 R is 4.1 nM; with P582 E, 6.5 nM; in the test with P582 L, 1.9 nM; with P582 Q it was 6.2 nM; with P582 F, 4.7 nM; in the test with P582 D, 3.6 nM. The same molecule returned an equilibrium dissociation constant (Kd) with K590 Q of 19.6 nM.

B3: hCG (ligand)
chain 1: not shown
chain 2: SKEPLRPRCRPINATLAVEKEGCPVCITVNTTICAGYCPTMTRVLQGVLPALPQVVCNYRDVRFESIRLPGCPRGVNPVVSYAVALSCQCALCRRSTTDCGGPKDHPLTCDDPRFQDSSSSKAPPPSLPSPSRLPGPSDTPILPQ
As to B3, the dissociation constant (Kd) in [1] and in test [2] was 0.412 nM each time.

By Kd is commonly meant the free concentration of one partner at which half of the binding sites on the other are occupied at equilibrium, for simple one-to-one binding. A higher Kd goes with lower affinity.
